What was measured:
[1] = molecular target: Allophanate hydrolase (AtzF) from Pseudomonas sp. strain ADP, His-tagged full-length (Pseudomonas sp. strain ADP); test: SEC; purified full-length AtzF on Superdex 200 prep-grade, 50 mM HEPES, 100 mM NaCl pH 7.5; oligomeric state from apparent size (~360 kDa)
[2] = molecular target: the molecule itself; test: SEC; purified AtzF467 on Superdex 200 prep-grade, 50 mM Tris, 100 mM NaCl pH 7.5; oligomeric state from apparent size (~110 kDa); data not shown

Molecule “Allophanate hydrolase (AtzF) from Pseudomonas sp. strain ADP, His-tagged full-length (enzyme)” has a stoichiometry N [1] of 6.

B1: C-terminally truncated AtzF (AtzF467), first 467 amino acids of AtzF, N-terminally histidine-tagged (domain or fragment, Pseudomonas sp. strain ADP)
chain: MNDRAPHPERSGRVTPDHLTDLASYQAAYAAGTDAADVISDLYARIKEDGENPIWISLLPLESALAMLADAQQRKDKGEALPLFGIPFGVKDNIDVAGLPTTAGCTGFARTPRQHAFVVQRLVDAGAIPIGKTNLDQFATGLNGTRTPFGIPRCVFNENYVSGGSSSGSAVAVANGTVPFSLGTDTAGSGRIPAAFNNLVGLKPTKGLFSGSGLVPAARSLDCISVLAHTVDDALAVARVAAGYDADDAFSRKAGAAALTEKSWPRRFNFGVPAAEHRQFFGDAEAEALFNKAVRKLEEMGGTCISFDYTPFRQAAELLYAGPWVAERLAAIESLADEHPEVLHPVVRDIILSAKRMSAVDTFNGIYRLADLVRAAESTWEKIDVMLLPTAPTIYTVEDMLADPVRLNSNLGFYTNFVNLMDLSAIAVPAGFRTNGLPFGVTFIGRAFEDGAIASLGKAFVEHDLAK
notes: Allophanate hydrolase AtzF, Pseudomonas sp. strain ADP, first 467 amino acids (ends at Lys467), amidase domain; also called amidase domain of allophanate hydrolase; source: E. coli BL21 (λDE3), purified (Ni-NTA, Superdex 200 size exclusion); not shown: His6, N-terminal, kept
For B1, the “stoichiometry N” value [2] was 2.
